Measured values taken from publication PMC2712734 (Nature structural & molecular biology, 2009).

B1: CHMP1B, pure recombinant (natural protein, human, UniProt Q7LBR1 1-199, looked up)
chain: MSNMEKHLFNLKFAAKELSRSAKKCDKEEKAEKAKIKKAIQKGNMEVARIHAENAIRQKNQAVNFLRMSARVDAVAARVQTAVTMGKVTKSMAGVVKSMDATLKTMNLEKISALMDKFEHQFETLDVQTQQMEDTMSSTTTLTTPQNQVDMLLQEMADEAGLDLNMELPQGQTGSVGTSVASAEQDELSQRLARLRDQV
B2: CHMP2A, full length, pure recombinant (natural protein, human, UniProt O43633 1-222, looked up)
chain: MDLLFGRRKTPEELLRQNQRALNRAMRELDRERQKLETQEKKIIADIKKMAKQGQMDAVRIMAKDLVRTRRYVRKFVLMRANIQAVSLKIQTLKSNNSMAQAMKGVTKAMGTMNRQLKLPQIQKIMMEFERQAEIMDMKEEMMNDAIDDAMGDEEDEEESDAVVSQVLDELGLSLTDELSNLPSTGGSLSVAAGGKKAEAAASALADADADLEERLKNLRRD

What was measured:
[1] = molecular target: GST-IST1NTD Y165A (human, UniProt P53990 1-189, Y165A); assay: SPR
[2] = molecular target: GST-IST1NTD E67A (human, UniProt P53990 1-189, E67A); assay: SPR
[3] = molecular target: GST-IST1NTD E168R (human, UniProt P53990 1-189, E168R); assay: SPR
[4] = molecular target: GST-IST1NTD Y64D (human, UniProt P53990 1-189, Y64D); assay: SPR
[5] = molecular target: the molecule itself; assay: negative-stain transmission electron microscopy
[6] = molecular target: T1, GST-CHMP3 V48D, A64D (human, UniProt Q9Y3E7 1-222, V48D | A64D); assay: pull-down
T1 sequence (looked up): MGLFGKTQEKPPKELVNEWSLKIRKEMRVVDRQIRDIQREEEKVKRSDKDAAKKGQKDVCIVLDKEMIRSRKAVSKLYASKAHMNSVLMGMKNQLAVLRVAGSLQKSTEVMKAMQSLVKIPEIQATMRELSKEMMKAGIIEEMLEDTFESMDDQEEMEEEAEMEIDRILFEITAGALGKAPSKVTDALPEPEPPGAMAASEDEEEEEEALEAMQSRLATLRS

[7] = molecular target: T2, GST-CHMP3, wild type (human, UniProt Q9Y3E7 1-222); assay: pull-down
T2 sequence (looked up): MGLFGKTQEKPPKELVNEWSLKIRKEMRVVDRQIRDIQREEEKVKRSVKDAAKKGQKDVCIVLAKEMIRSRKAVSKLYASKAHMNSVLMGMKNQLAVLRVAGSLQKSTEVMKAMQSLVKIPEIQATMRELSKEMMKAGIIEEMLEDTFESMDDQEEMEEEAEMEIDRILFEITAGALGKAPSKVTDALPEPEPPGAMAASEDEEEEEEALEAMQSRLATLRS

[8] = molecular target: T3, GST-CHMP3 I168D, L169D (human, UniProt Q9Y3E7 1-222, I168D | L169D); assay: pull-down
T3 sequence (looked up): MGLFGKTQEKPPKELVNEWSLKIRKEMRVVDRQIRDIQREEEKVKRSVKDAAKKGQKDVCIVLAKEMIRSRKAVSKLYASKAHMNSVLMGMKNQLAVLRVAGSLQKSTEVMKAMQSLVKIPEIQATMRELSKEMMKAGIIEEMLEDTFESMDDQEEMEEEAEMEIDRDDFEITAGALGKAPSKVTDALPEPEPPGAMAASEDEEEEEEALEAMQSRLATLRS

[9] = molecular target: T4, CHMP3 I168D, L169D (human, UniProt Q9Y3E7 1-222, I168D | L169D); assay: negative-stain transmission electron microscopy
T4 sequence (looked up): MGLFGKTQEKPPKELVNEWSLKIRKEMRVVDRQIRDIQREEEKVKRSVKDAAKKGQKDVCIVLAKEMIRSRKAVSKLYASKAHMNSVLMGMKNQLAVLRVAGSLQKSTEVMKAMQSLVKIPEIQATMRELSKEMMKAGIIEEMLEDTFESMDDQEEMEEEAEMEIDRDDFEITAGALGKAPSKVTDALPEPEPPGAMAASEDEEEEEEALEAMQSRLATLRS

[10] = molecular target: T5, CHMP3 V48D, A64D (human, UniProt Q9Y3E7 1-222, V48D | A64D); assay: negative-stain transmission electron microscopy
T5 sequence (looked up): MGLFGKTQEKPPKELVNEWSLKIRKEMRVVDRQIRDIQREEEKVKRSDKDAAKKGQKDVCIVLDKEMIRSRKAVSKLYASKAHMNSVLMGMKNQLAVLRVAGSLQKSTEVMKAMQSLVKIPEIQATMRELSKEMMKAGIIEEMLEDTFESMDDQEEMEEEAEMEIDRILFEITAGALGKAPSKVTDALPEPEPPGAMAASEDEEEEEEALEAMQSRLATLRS

[11] = molecular target: B1; assay: SPR
[12] = molecular target: the molecule itself; assay: light scattering at 330 nm + negative-stain transmission electron microscopy
[13] = molecular target: B2; assay: pull-down
[14] = molecular target: B2; assay: negative-stain transmission electron microscopy

## B1
[1]
  fold reduction of binding affinity against wild type IST1NTD: > 8 fold
[2]
  fold reduction of binding affinity against wild type IST1NTD: 6 fold
[3]
  fold reduction of binding affinity against wild type IST1NTD: > 8 fold
[4]
  fold reduction of binding affinity against wild type IST1NTD: > 8 fold
[5]
  binding result: binds

## B2
[6]
  binding result: binds
[7]
  binding result: binds
[8]
  binding result: binds
[9]
  binding result: binds
[10]
  binding result: binds

B3: GST-IST1NTD, wild type (domain or fragment, human, UniProt P53990 1-189, looked up)
chain: MLGSGFKAERLRVNLRLVINRLKLLEKKKTELAQKARKEIADYLAAGKDERARIRVEHIIREDYLVEAMEILELYCDLLLARFGLIQSMKELDSGLAESVSTLIWAAPRLQSEVAELKIVADQLCAKYSKEYGKLCRTNQIGTVNDRLMHKLSVEAPPKILVERYLIEIAKNYNVPYEPDSVVMAEAPP
[11]
  Kd: 22 µM

B4: IST1NTD (N-terminal domain of IST1, residues 1-189) (domain or fragment, human, UniProt P53990 1-189, looked up)
chain: MLGSGFKAERLRVNLRLVINRLKLLEKKKTELAQKARKEIADYLAAGKDERARIRVEHIIREDYLVEAMEILELYCDLLLARFGLIQSMKELDSGLAESVSTLIWAAPRLQSEVAELKIVADQLCAKYSKEYGKLCRTNQIGTVNDRLMHKLSVEAPPKILVERYLIEIAKNYNVPYEPDSVVMAEAPP
[12]
  binding result: binds

B5: GST-CHMP3_(1-150) (domain or fragment, human, UniProt Q9Y3E7 1-150, looked up)
chain: MGLFGKTQEKPPKELVNEWSLKIRKEMRVVDRQIRDIQREEEKVKRSVKDAAKKGQKDVCIVLAKEMIRSRKAVSKLYASKAHMNSVLMGMKNQLAVLRVAGSLQKSTEVMKAMQSLVKIPEIQATMRELSKEMMKAGIIEEMLEDTFES
[13]
  binding result: binds

B6: CHMP3_(1-150) (domain or fragment, human, UniProt Q9Y3E7 1-150, looked up)
chain: MGLFGKTQEKPPKELVNEWSLKIRKEMRVVDRQIRDIQREEEKVKRSVKDAAKKGQKDVCIVLAKEMIRSRKAVSKLYASKAHMNSVLMGMKNQLAVLRVAGSLQKSTEVMKAMQSLVKIPEIQATMRELSKEMMKAGIIEEMLEDTFES
[14]
  binding result: binds
